{
  "source": "patent US20250186538A1",
  "about": "“BIVALIRUDIN COMPOUNDS” (The General Hospital Corporation, priority 2022, published 2025)",
  "origin": "cited, not measured here",
  "conditions": "in vivo",
  "data": [
    {"substance": "D-Phe-Pro-Arg-Pro-Gly-Gly-Gly-Gly-Asn-Gly-Asp-Phe-Glu-Glu-Ile-Pro-Glu-Glu-Tyr-Leu [bival]", "values": [
      {"measurement": "Half-life", "value": "about 20 min"}
    ]}
  ]
}
